As usually defined, the Kd is the concentration at which binding is half-saturated. A high value points to weaker binding.

The assay has as its target T1, FL NHBA variant p3 (strain MC58) (Neisseria meningitidis MC58, UniProt Q7DD37, strain).
T1 construct: also called NHBAp3 (MC58); source: recombinant, purified protein antigen
Nature of the assay: SPR; single-cycle kinetics, Biacore T200, 25°C; Fab 5H2 (~800-1100 RU) captured by anti-human Fab antibodies on CM5; NHBA antigen injected at 3.125-50 nM, 30 uL/min; HBS-EP pH 7.4; 1:1 Langmuir model with mass transfer term; triplicate. Particulars: both partners purified.

B1: Fab 5H2 (Fab derived from the vaccine-elicited human monoclonal antibody 5H2) (Fab, V domains shown)
VH: QVQLQESGPGLVKPSETLSLTCTVSGGSVSSGSSYWTWIRQTPGKGLEWIGYTSYSGSTKYNPSLKSRVTLSVDMSKNQFSLKLKSVTAADTAVYFCARDRFDVASGSSFDFWGQGTLVTVSS
VL: EIVMTQTPSSLSASVGDRVTITCRASQSISNYLNWYQQKPGTAPKLLTYAASSLGSGVPSRFSGSGSGTDLTLTISSLRPEDFATYYCQQSYGSPTFGQGTKLEIR
notes: they are in the structures deposited here: PDB 5NYX chains H, M, O and PDB 5O1R chains H, I (residues Q1-C226 modelled); they are in the structures deposited here: PDB 5NYX chains L, N, P and PDB 5O1R chains L, M (residues E1-E212 modelled); Recombinant Fab; variable region genes synthesised; also called huFab 5H2; source: Expi293 cells, transient transfection, purified from supernatant …
Molecule B1 came in with a Kd of 0.4 nM.
